Source: PMC9784018, “Rational Strategy for Designing Peptidomimetic Small Molecules Based on Cyclic Peptides Targeting Protein–Protein Interaction between CTLA-4 and B7-1” (Pharmaceuticals, 2022)

Experiments:
[1] = target: CTLA-4 of the CTLA-4:B7-1[Biotinylated] Inhibitor Screening Assay kit (UniProt P16410); assay: ELISA; CTLA-4:B7-1[Biotinylated] Inhibitor Screening Assay kit (BPS Bioscience) with the MBP–peptide–His-tag fusion protein; data not shown
[2] = target: CTLA-4 (coated for ELISA) (UniProt P16410); assay: ELISA; CTLA-4 (5 μg/mL) coated on 384-well plate; purified MBP–peptide–His-tag fusion in 15-point two-fold dilution from 14 μM to 0.85 nM in PBS with 0.5% BSA, 1 h; detected with anti-FLAG M2 peroxidase antibody; EC50 = midpoint concentration
[3] = target: CTLA-4 (coated for ELISA), P16410; assay: ELISA; settings: chain shown with the change; CTLA-4 coated at 5 μg/mL on the ELISA plate
Sequence of CTLA-4 (coated for ELISA), P16410 (P16410 36-161): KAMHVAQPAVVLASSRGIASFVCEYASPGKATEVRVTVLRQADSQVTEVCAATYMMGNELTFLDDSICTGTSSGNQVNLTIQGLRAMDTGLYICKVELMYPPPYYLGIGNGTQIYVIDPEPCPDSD

Binder | IC50 [1] | EC50 [2] | EC50 [3]
CMHPFLPIVSHHFCER [MBP–C4m-3127 peptide–His-tag fusion protein] | 1360 nM | 74.7 nM | –
CLHPFLPIVSHHFCGR [MBP–C4-302–His-tag fusion protein M1L; L6P; V7I; G(+2)R] | – | – | 81.8 nM
